According to patent US20100022401A1, “Avidin-like proteins from symbiotic bacteria” (LICENTIA OY, priority 2004, published 2010):
Read-outs that look alike come from different tables or passages of the source. Marks after values point to notes of the source that are not given here.

B1: Avidin: chicken avidin (SEQ ID NO:6), glycosylated biotin-binding protein (protein)
chain: NSARSTPGCPPAAEMVHATSPLLLLLLLSLALVAPGLSARKCSLTGKWTNDLGSNMTIGAVNSRGEFTGTYITAVTATSNEIKESPLHGTQNTINKRTQPTFGFTVNWKFSESTTVFTGQCFIDRNGKEVLKTMWLLRS
B2: Bradavidin-core: C-terminally truncated core form (118 amino acid residues, SEQ ID NO:2) of biotin-binding protein from Bradyrhizobium japonicum, produced in E. coli (protein, listed as Bradyrhizobium japonicum)
chain: QSVNWTWTNQYGSTLAITSFNSNTGAITGTYTNNAANSCDEGKPQGVTGWLAYGNTGTAISFSVNFLGCGSTTVWTGQLNNATGFQGLWYLSLAEAVAWNGISAGADTFTFSSGDKAL
B3: Bradavidin: full length wild-type (138 amino acid residues, SEQ ID NO:1) avidin-like biotin-binding protein from Bradyrhizobium japonicum (protein, listed as Bradyrhizobium japonicum)
chain: QSVNWTWTNQYGSTLAITSFNSNTGAITGTYTNNAANSCDEGKPQGVTGWLAYGNTGTAISFSVNFLGCGSTTVWTGQLNNATGFQGLWYLSLAEAVAWNGISAGADTFTFSSGDKALLTKSGVDLKAGSEKLSNTKK

Assays:
[1] = [3H]biotin dissociation rate assay; format: binding; conditions: radio-biotin, different temperatures
Protocol: (§1) FIG. 2 Biotin dissociation analysis. (A) The [3H]biotin dissociation rate constant was measured at different temperatures. The values for streptavidin are from Klumb et al. (Klumb et al., 1998). The scale of the Y axis is logarithmic. (B) Release of fluorescent biotin conjugate from avidins was studied as a function of time in the presence of excess D-biotin at 50° C.
(§2) Ligand binding properties were studied both by [3H]biotin assay and fluorescent biotin conjugate assay. The dissociation rate constant of [3H]biotin (Amersham) from the bradavidins and avidin was measured at various temperatures as described in detail previously (Klumb et al., 1998). According to the results, (Table I, FIG. 2) the faster dissociation rate measured from bradavidin indicates weaker affinity toward the radiobiotin than those of avidin and streptavidin. The dissociation rate of a fluorescent biotin conjugate (ArcDia BF560™-biotin) was measured as previously described (Hytönen et al., 2004a) at 50° C.

[2] = values from Bayer et al., 1996, cited from earlier work
[3] = Fluorescent biotin conjugate dissociation assay; format: binding; conditions: for Fluorescent biotin kdiss: ArcDia BF560-biotin; for Fluorescent biotin kdiss / Release 1 h of fluorescent biotin conjugate: 50° C.; for Fluorescent biotin conjugate dissociation (in words): fluorescent biotin conjugate as ligand; for Release 1 h of fluorescent biotin conjugate: one hour, presence of excess free biotin
Protocol: as §1, §2
(§3) The apparent molecular mass is indicated and followed by the theoretical mass in brackets. Transition temperature (Tr) indicates the temperature in which half of the protein is tetrameric and half monomeric in the absence (first value) and presence (second value) of biotin. In addition to the measured dissociation rate constant (kdiss), the release percentage of the fluorescent biotin conjugate in one hour in the presence of excess free biotin is indicated. Calculated isoelectrical point (pI) and the number of cysteine residues per monomer are also indicated.

[4] = SDS-PAGE based thermal stability (heat treatment); format: physicochemical
Source text: The thermal stability characteristics of the proteins were studied by a SDS-PAGE based method as previously described in detail by (Bayer et al., 1996).
as §3

Row | Molecule | [3H]biotin dissociation rate (in words) [1] | Heat treatment SDS-PAGE Tr (transition temperature) ([2]; absence of biotin) | Heat treatment SDS-PAGE Tr (transition temperature) ([2]; presence of biotin) | Fluorescent biotin kdiss [3] | Fluorescent biotin conjugate dissociation (in words) [3] | Release 1 h of fluorescent biotin conjugate [3] | Heat treatment SDS-PAGE Tr (transition temperature, half tetrameric and half monomeric) ([4]; absence of biotin) | Heat treatment SDS-PAGE Tr (transition temperature, half tetrameric and half monomeric) ([4]; presence of biotin)
1 | B1 | clearly the slowest dissociation | 58^a ° C. | 100^a ° C. | 0.00027 s⁻¹ | clearly the fastest in dissociation | 71.5% | – | –
2 | B2 | – | – | – | 1.2e-05 s⁻¹ | – | 4.4% | 70^ ° C. | 85 °C
3 | B3 | fastest dissociation rate | – | – | 1.5e-05 s⁻¹ | very slow and small release | 4.7% | 65^ ° C. | 85 °C
